Assay results reported in article PMC8721586, “Enzymatic Switching Between Archaeal DNA Polymerases Facilitates Abasic Site Bypass” (Frontiers in Microbiology, 2021).

Substrate: Nc1nc2c(ncn2[C@H]2C[C@H](O)[C@@H](COP(=O)(O)OP(=O)(O)OP(=O)(O)O)O2)c(=O)[nH]1
Assay: steady-state single-nucleotide incorporation, FAM-primer gel assay, Michaelis-Menten fit
Assay type: biochemical, Saccharolobus islandicus
Details: pH 8.0 Tris-HCl, 40 mM KCl, 10 mM MgCl2, 11 nM enzyme, 100 nM primer-template (undamaged S0; also AP-site substrates D1-D8, L1-L8), apparent Km

B1: Dpo2 (SisDpo2) (Saccharolobus islandicus REY15A) (protein)
chain: MREMEEYVLDAYPVKGGVKLFLSNFKEKSIRTTFPVYAITDNPDVVLQHPEVKYYEEEKWKTLNGKEAKVYRFEVESFDAYYYMRKRLNVVNETPTVLSQTLYRLGIKPFRRLNSSDDEFPKVTIAKVVPLDWYGESLKGKVFEVKINNEVRRFYEKPEVEADITECLGEACNYVKSNVKIRIEKKRSPVSAKGLIEWSLISLTPLHEIAYATIGKVLTTNEAWVAFKRRIIIPKIVPRVEKLRRLENIMMADKGGLILFPQPGCYDNVYQVDFSSMYPSLIVKYNISAETVDACDDIKTELHSICLREKGIIPEALEWLIKRKSELKRIDKERAEAIKWILVASFGYLGYRNSLFGKIEAYEMVTYLARKTLRRTMEIAEEMGLKVLHSIIDSLVVKGDNIDKFIERVEKETGLRLDHKRYNWIIFTTTRNDTPYPTRYIANMNGEIIAKGLIRENMPNIVKSFLKDVLRGLSLTRTCSDVKKVRIRDLYEKYRKRTINGEPIDYVIWIKGVPYVRGIKGFYDARLGYMGRDVNYYINYLRRVYDNVEEVISRC
notes: recombinant, expressed in native host S. islandicus E233S; purified as in Feng et al. 2021
Km: 118 ± 22.7 µM
kcat: 0.525 ± 0.125 s⁻¹
